The supplement of paper PMC7125110
± gives the standard error. Fewer inactive variants are shown than the library holds.

B1: glmS ribozyme (parent)
chain: AUAAAAGCGCCAGAACUACAGAAAUGUAGUUGACGAGGAGGAGGUUUAUCGAAUUUUCGGCGGAUGCCUCCAAA

Assays:
Conditions in all cases: with glucosamine-6-phosphate
glucosamine-6-phosphate [1] = variants of: B1; test: self-cleavage kobs at 40 uM GlcN6P; higher = faster cleavage; RNA array
In short: (§1)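 Barcoded ribozyme variants on sequenced MiSeq chips were transcribed in situ by E. coli RNA polymerase and followed at 37 °C through a hybridised Cy3 probe. Glucosamine-6-phosphate at 40 μM to 10 mM in HEPES/KCl/Mg(OAc)2 buffer was flowed in, and tiles were imaged over ~14 h. Signals were normalised to baseline and to non-cleaving reference variants, and per-tile medians were fit to one- or two-exponential decays to give kobs. Weighted Michaelis–Menten fits across concentrations gave kcat and KM.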

glucosamine-6-phosphate [2] = variants of: B1; test: self-cleavage kobs at 160 uM GlcN6P; higher = faster cleavage; RNA array
In short: as §1

glucosamine-6-phosphate [3] = variants of: B1; test: self-cleavage kobs at 640 uM GlcN6P; higher = faster cleavage; RNA array
In short: as §1

glucosamine-6-phosphate [4] = variants of: B1; test: self-cleavage kobs at 2500 uM GlcN6P; higher = faster cleavage; RNA array
In short: as §1

glucosamine-6-phosphate [5] = variants of: B1; test: self-cleavage kobs at 10000 uM GlcN6P; higher = faster cleavage; RNA array
In short: as §1

Row | Variant | self-cleavage kobs at 40 uM GlcN6P (glucosamine-6-phosphate [1]) [s⁻¹] | self-cleavage kobs at 160 uM GlcN6P (glucosamine-6-phosphate [2]) [s⁻¹] | self-cleavage kobs at 640 uM GlcN6P (glucosamine-6-phosphate [3]) [s⁻¹] | self-cleavage kobs at 2500 uM GlcN6P (glucosamine-6-phosphate [4]) [s⁻¹] | self-cleavage kobs at 10000 uM GlcN6P (glucosamine-6-phosphate [5]) [s⁻¹]
1 | AUAAAAGCGCCAGAACUACAGAAAUGUAGUUGUCGAGGAAGCGGUUUAUCGAAUUUUCGGCGGAUGCCUCCAAA | < 1e-05 | < 1e-05 | < 1e-05 | < 1e-05 | < 1e-05
2 | AUAAAAGCGCCAGAACUACAGAAAUGUAGUUGCCGAGGAGGAGCUUUAUCGAAUUUUCGGCGGAUGCCUCCAAA | < 1e-05 | < 1e-05 | < 1e-05 | < 1e-05 | < 1e-05
3 | AUAAAAGCGCCAGAACUACAGAAAUGUAGUUGACGAGGAUGAGGUUUAUCGAAUUUUCCGCGGAUGCCUCCAAA | < 1e-05 |  | < 1e-05 |  | 
4 | AUAAAAGCGCCGGAACUACAGAAAUGUAGUUGACGAGGAGGAGGUUUAUCGAAUUUUCGGCGGAUGCGUCUAAA | < 1e-05 |  | < 1e-05 |  | < 1e-05
5 | CAUAAAAGCGCCAGACUACAGAAAUGUAGUUGACGAGGAGGAGGUUUAUCGAAUUUUCGGCGGAUGCCUCCAAA | 6.43e-05 ± 1.4e-05 |  |  |  | 0.00344 ± 0.00044
6 | AUAAAAGCGCCAGAACUACAGAAAUGUAGUUGACGAGGCGGAGGUUUAUCGAACUUUCGGCGGCUGCCUCCAAA | < 1e-05 |  |  |  | 
7 | AUAAAACCGCCAGAACUACAGAAAUGUAGUUGUCGAGGAGGAGGUUUAUCGAAUUUUCGGCGGAUGCCUCCAAA | < 1e-05 | < 1e-05 |  | < 1e-05 | < 1e-05
8 | AUAAAAGCGCCAGAACUACAGAAAUGUAGUUGACGAGGAGGAGGUUUAUCGAAAUUUCGGCGGAUGCCUCUAAA | 0.00124 ± 0.00023 | 0.00159 ± 0.00033 | 0.00337 ± 0.00063 | 0.00313 ± 0.00083 | 0.0214 ± 0.01
9 | AUAAAAGCGCCAGAACUACAGAAAUGUAGUCGACGAGGAGGAGGUUUAGCGAAUUUUCGGCGGAUGUCUCCAAA | < 1e-05 |  |  |  | 
10 | AUAAAAGCGCCAGAACUACAGAAAUGUAGUUGACGAGGAGGAGCUUUAUCGAAUAUUCGGCGGAUGCCUCCAAA | < 1e-05 | < 1e-05 | < 1e-05 |  | 
11 | AUAAAAGCGCCUGAGCUACAGAAAUGUAGUUGACGAGGAGGAGGUUUAUCGAAUUUUCGGCGGAUGCCUCUAAA | 0.00147 ± 0.00036 |  |  |  | 
12 | AUAAAAGCGCCACAACUACAGAAAUGUAGUUGACGAGGAGGAGGCAUAUCGAAUUUUCGGCGGAUGCCUCCAAA | < 1e-05 | < 1e-05 | < 1e-05 |  | < 1e-05
13 | AUAAAACCGCAAGAACUACAGAAAUGUAGUUGACGAGGAGGAGGUUUAUUGAACUUUAGGCGGAUGCCUACAAA | 0.000371 ± 0.00013 |  |  |  | 
